Laboratory results published in the Human Domainome abundance scans (Beltran et al. 2025).
± gives the uncertainty stated by the source.

B1: Dystrobrevin alpha, residues 235 to 294; numbered along this chain, Q9Y4J8 (parent)
chain: ENVFHPVECSYCHSESMMGFRYRCQQCHNYQLCQDCFWRGHAGGSHSNQHQMKEYTSWKS

Variants of: B1
Test: abundance fitness (aPCA) (normalised: wild type 0, dead -1); higher = more abundant; growth selection in yeast, the domain comes from the species named
Conditions: Homo sapiens

Variant | abundance fitness
ENVFHPVECSYCHSESTMGFRYRCQQCHNYQLCQDCFWRGHAGGSHSNQHQMKEYTSWKS [M17T] | 0.081 ± 0.069
ENVFHPVECSYCHSESCMGFRYRCQQCHNYQLCQDCFWRGHAGGSHSNQHQMKEYTSWKS [M17C] | -0.055 ± 0.069
ENVFHPVECSYCHSESAMGFRYRCQQCHNYQLCQDCFWRGHAGGSHSNQHQMKEYTSWKS [M17A] | -0.037 ± 0.056
ENVFHPVECSYCHSESRMGFRYRCQQCHNYQLCQDCFWRGHAGGSHSNQHQMKEYTSWKS [M17R] | 0.007 ± 0.046
ENVFHPVECSYCHSESPMGFRYRCQQCHNYQLCQDCFWRGHAGGSHSNQHQMKEYTSWKS [M17P] | -0.008 ± 0.061
ENVFHPVECSYCHSESHMGFRYRCQQCHNYQLCQDCFWRGHAGGSHSNQHQMKEYTSWKS [M17H] | 0.116 ± 0.077
ENVFHPVECSYCHSESNMGFRYRCQQCHNYQLCQDCFWRGHAGGSHSNQHQMKEYTSWKS [M17N] | 0.046 ± 0.064
ENVFHPVECSYCHSESKMGFRYRCQQCHNYQLCQDCFWRGHAGGSHSNQHQMKEYTSWKS [M17K] | 0.136 ± 0.066
ENVFHPVECSYCHSESFMGFRYRCQQCHNYQLCQDCFWRGHAGGSHSNQHQMKEYTSWKS [M17F] | -0.002 ± 0.076
ENVFHPVECSYCHSESDMGFRYRCQQCHNYQLCQDCFWRGHAGGSHSNQHQMKEYTSWKS [M17D] | 0.059 ± 0.071
ENVFHPVECSYCHSESGMGFRYRCQQCHNYQLCQDCFWRGHAGGSHSNQHQMKEYTSWKS [M17G] | 0.085 ± 0.047
ENVFHPVECSYCHSESSMGFRYRCQQCHNYQLCQDCFWRGHAGGSHSNQHQMKEYTSWKS [M17S] | 0.109 ± 0.053
ENVFHPVECSYCHSESIMGFRYRCQQCHNYQLCQDCFWRGHAGGSHSNQHQMKEYTSWKS [M17I] | 0.045 ± 0.088
ENVFHPVECSYCHSESVMGFRYRCQQCHNYQLCQDCFWRGHAGGSHSNQHQMKEYTSWKS [M17V] | 0.004 ± 0.059
ENVFHPVECSYCHSESQMGFRYRCQQCHNYQLCQDCFWRGHAGGSHSNQHQMKEYTSWKS [M17Q] | -0.019 ± 0.086
ENVFHPVECSYCHSESEMGFRYRCQQCHNYQLCQDCFWRGHAGGSHSNQHQMKEYTSWKS [M17E] | 0.116 ± 0.095
ENVFHPVECSYCHLESMMGFRYRCQQCHNYQLCQDCFWRGHAGGSHSNQHQMKEYTSWKS [S14L] | -0.153 ± 0.056
ENVFHPVECSYCHMESMMGFRYRCQQCHNYQLCQDCFWRGHAGGSHSNQHQMKEYTSWKS [S14M] | -0.149 ± 0.057
ENVFHPVECSYCHEESMMGFRYRCQQCHNYQLCQDCFWRGHAGGSHSNQHQMKEYTSWKS [S14E] | -0.074 ± 0.082
ENVFHPVECSYCHVESMMGFRYRCQQCHNYQLCQDCFWRGHAGGSHSNQHQMKEYTSWKS [S14V] | 0.088 ± 0.061
ENVFHPVECSYCHAESMMGFRYRCQQCHNYQLCQDCFWRGHAGGSHSNQHQMKEYTSWKS [S14A] | -0.051 ± 0.063
ENVFHPVECSYCHHESMMGFRYRCQQCHNYQLCQDCFWRGHAGGSHSNQHQMKEYTSWKS [S14H] | -0.081 ± 0.13

Variant | abundance fitness
ENVFHPVECSYCHGESMMGFRYRCQQCHNYQLCQDCFWRGHAGGSHSNQHQMKEYTSWKS [S14G] | -0.11 ± 0.059
ENVFHPVECSYCHFESMMGFRYRCQQCHNYQLCQDCFWRGHAGGSHSNQHQMKEYTSWKS [S14F] | -0.622 ± 0.11
ENVFHPVECSYCHNESMMGFRYRCQQCHNYQLCQDCFWRGHAGGSHSNQHQMKEYTSWKS [S14N] | -0.003 ± 0.11
ENVFHPVECSYCHTESMMGFRYRCQQCHNYQLCQDCFWRGHAGGSHSNQHQMKEYTSWKS [S14T] | -0.026 ± 0.053
ENVFHPVECSYCHRESMMGFRYRCQQCHNYQLCQDCFWRGHAGGSHSNQHQMKEYTSWKS [S14R] | 0.042 ± 0.06
ENVFHPVECSYCHWESMMGFRYRCQQCHNYQLCQDCFWRGHAGGSHSNQHQMKEYTSWKS [S14W] | -0.416 ± 0.13
ENVFHPVECSYCHCESMMGFRYRCQQCHNYQLCQDCFWRGHAGGSHSNQHQMKEYTSWKS [S14C] | -0.086 ± 0.077
ENVFHPVECSYCHKESMMGFRYRCQQCHNYQLCQDCFWRGHAGGSHSNQHQMKEYTSWKS [S14K] | -0.043 ± 0.11
ENVFHPVECSYCHQESMMGFRYRCQQCHNYQLCQDCFWRGHAGGSHSNQHQMKEYTSWKS [S14Q] | -0.16 ± 0.097
ENVFHPVECSYCHPESMMGFRYRCQQCHNYQLCQDCFWRGHAGGSHSNQHQMKEYTSWKS [S14P] | -0.679 ± 0.094
ENVFHPVECSYCHYESMMGFRYRCQQCHNYQLCQDCFWRGHAGGSHSNQHQMKEYTSWKS [S14Y] | -0.324 ± 0.074
ENVFHPVECSYCHDESMMGFRYRCQQCHNYQLCQDCFWRGHAGGSHSNQHQMKEYTSWKS [S14D] | -0.13 ± 0.072
ENVFHPVECSYCLSESMMGFRYRCQQCHNYQLCQDCFWRGHAGGSHSNQHQMKEYTSWKS [H13L] | -0.176 ± 0.045
ENVFHPVECSYCYSESMMGFRYRCQQCHNYQLCQDCFWRGHAGGSHSNQHQMKEYTSWKS [H13Y] | -0.165 ± 0.095
ENVFHPVECSYCESESMMGFRYRCQQCHNYQLCQDCFWRGHAGGSHSNQHQMKEYTSWKS [H13E] | -0.23 ± 0.093
ENVFHPVECSYCISESMMGFRYRCQQCHNYQLCQDCFWRGHAGGSHSNQHQMKEYTSWKS [H13I] | -0.406 ± 0.19
ENVFHPVECSYCFSESMMGFRYRCQQCHNYQLCQDCFWRGHAGGSHSNQHQMKEYTSWKS [H13F] | -0.243 ± 0.11
ENVFHPVECSYCVSESMMGFRYRCQQCHNYQLCQDCFWRGHAGGSHSNQHQMKEYTSWKS [H13V] | -0.457 ± 0.063
ENVFHPVECSYCMSESMMGFRYRCQQCHNYQLCQDCFWRGHAGGSHSNQHQMKEYTSWKS [H13M] | -0.109 ± 0.054
ENVFHPVECSYCKSESMMGFRYRCQQCHNYQLCQDCFWRGHAGGSHSNQHQMKEYTSWKS [H13K] | -0.027 ± 0.068
ENVFHPVECSYCRSESMMGFRYRCQQCHNYQLCQDCFWRGHAGGSHSNQHQMKEYTSWKS [H13R] | -0.061 ± 0.055
ENVFHPVECSYCDSESMMGFRYRCQQCHNYQLCQDCFWRGHAGGSHSNQHQMKEYTSWKS [H13D] | -0.474 ± 0.079
